Consider 6 molecules from patent publication US20250320277A1.

Test [1] deals with CHIKV p62-E1 (Chikungunya virus). The test is described as follows: ELISA, plate-coated p62-E1, eight-point mAb dilution.
Test [2] has the same target.
The target is the same in test [3]. Briefly: BLI, mAb on anti-human Fc sensor. On the technique in general: Biolayer interferometry detects binding as a change in optical thickness at a sensor tip.
Test [4] has the same target. The test is described as follows: BLI, […], global 1:1 fit; […].
The target in test [5] is MAYV p62-E1 (Mayaro virus (BeAr 20290)). Briefly: ELISA, plate-coated p62-E1, eight-point mAb dilution. A general note: ELISA stands for enzyme-linked immunosorbent assay.

B1: DC2.M287 (antibody, V domains shown)
VH: EVQLVESGGGLVQPGGSLRLSCAASGFTFRDYWMIWVRQTPGKGLEWVANINRNGNEKHYVDSLKGRFTISRDNTKNSLYLQVNGLSAEDTAVYYCVRDSSPSFGPGNYYDAFDIWGQGTTVTVSS
VL: DIRVTQSPSSLSASVGDRVTITCRASQDIRNEVGWYQQKPGQAPKVLIFAASTLQSGVPSRFRGSGSGTVFTLTISSLQPEDLATYYCLQDFNYPRTFGQGTKVDIK
With B1, the EC50 in test [1] stood at 43 nM.

B2: DC2.M301 (antibody, V domains shown)
VH: QVQLVQSGAEVKKPGAAVKVSCKASGYTFSGYYIHWVRQAPGQGLEWMGWINPNSGGTDFAQKFQGRVTMTRDTSISTAYMELSRLRSDDTAVYLCSRDPGYTYGYPLGYWGQGTLVTVSS
VL: ETTLTQSPGTLSLSPGERATLSCRASQSVSSSYLAWYQQKPGQAPRLLIYGTSSRATGIPDRFSGRGSGTDFTLTISRLEPEDFAVYYCQQYGNSPPYTFGQGTKVDIK
Consider B2, for which, in test [2], the kon worked out at 260000 M⁻¹ s⁻¹. The same molecule displayed a fold higher binding affinity for CHIKV p62-E1 than MAYV p62-E1 in test [3] of 10 fold. This molecule also gave a dissociation constant (Kd) in test [4] of 1.6 nM. The EC50 in test [1] turned out to be 0.88 nM.

B3: DC2.M17 (antibody, V domains shown)
VH: EVQLVESGSELKKPGASVRVSCEASGYSFTSHTIVWMRQAPGQGLECLGWINTNTGNPTYAQGFTGRFVFSLDTSVSTAYLQISSLKAADTAVYYCARVLKCLGGSASCSGHGYYDYGMAVWGQGTTVTVSS
VL: DIVLTQSPLSLPVTPGEPASISCRSSQSLLHSNGYNFLHWYLQKPGQSPQLLIYLGSIRASGVPDRFSGSGSGTDFTLKISRVEAEDVGVYYCMQALQTFMYTFGQGTKLEIK
Consider B3, for which the EC50 in test [1] worked out at 0.9 nM.

B4: DC2.M5 (antibody, V domains shown)
VH: EVQLVESGGGLVQPGGSLSLACEVSGFILSDHYIDWVRQAPGKGLEWVGRSRNKAKRYTTEYAASVKGRFTISRDDSNNSLYLLMKSLKTEDTAVYFCTRAGYYDKNGDSLDALDIWGQGTMVTVSS
VL: DIQVTQSPSSLSASVGDRVTITCRTSQTVSSNLNWYQQRPGKAPKLLISGISDLHSGVPSRFSGSGSGTDSTLTISSLQPEDSATYYCQQSYSLPRTFGQGTKVEIK
Take B4: the values for the EC50 in test [1] and in test [5] were 33 nM and 39 nM, respectively.

B5: DC2.M336 (antibody, V domains shown)
VH: QVQLVQSGGRLVKPGGSLRLSCAASGFTIIDSYMSWIRQAPGKGLEWISYINPSGSVIYYSDSVKGRFISSRDNAKNSVYLQLSSLRAEDAAVYYCARGIYDQSDAFDLWGQGTTVTVSS
VL: DIVLTQSPSSLSASVGDRVTITCRASQGISNSLAWYQQRPGKAPKLLIYGASRLGSGVPSRFSGSGSGADYTLTISGLQPEDFATYYCQQYYITPPMTFGPGTKVDIK
Turning to B5, the EC50 in test [1] amounted to 0.9 nM; in test [5], 12.5 nM.

B6: DC2.M342 (antibody, V domains shown)
VH: QVQLVQSGAEVKKSGSSVTVSCKASGSTFISHAISWVRQAPGEGLEWMGRLIPVSGTPKYAHKFQGRLTITADDSTTTVYLTLRSLRFEDTAVYYCATWDADSTTLLYYFMDVWGKGTTVTVSS
VL: DIQVTQSPSTLSASVGDRVTITCRASQSISRWLAWYQQKPGKAPKLLIYKASSLESGVPSRFSGTGSGTEFTLTISSLQPDDFATYYCQQYNSYSTWTFGQGTKLEIK
Consider B6, for which the EC50 in test [1] is 35 nM; in test [5], 130 nM.

For orientation: EC50 means the midpoint of the concentration-response curve. High values mean lower potency in that assay, low ones higher potency in that assay. As a reminder, the kon is the rate constant with which the complex forms. A high value points to fast association. Usually Kd stands for a measure of binding affinity in units of concentration. Low readings indicate higher affinity, high ones lower affinity.
